Reference: patent US8466270B2, “Methods for using artificial polynucleotides and compositions thereof to reduce transgene silencing” (Monsanto Technology LLC, priority 2002, dated 2013)

Experiments:
[1] = test system: transgenic soybean plants; test: CP4EPSPS enzyme level in transgenic soybean plants; format: in vivo
Procedure: Constructs containing the artificial CP4EPSPS polynucleotides, CP4EPSPS_AT and CP4EPSPS_ZM are evaluated in soybean (Table 22). The plasmid constructs all contain the P-FMV promoter to drive expression of the new CP4EPSPS polynucleotides and are compared to the P-FMV/CP4EPSPS_Syn contained in pMON20999. About 25 to 30 transgenic soybean plants are produced for each construct. The transformation efficiency and CP4EPSPS enzyme, levels are measured.

[2] = test system: Wheat plants; test: CP4EPSPS enzyme expression in wheat leaves by ELISA; format: in vivo
Description: Wheat plants transformed with the new CP4EPSPS polynucleotides are compared for transformation efficiency and CP4EPSPS enzyme expression determined by ELISA (Table 25). […] The average expression of CP4EPSPS in leaves from wheat plants containing the CP4EPSPS_ZM polynucleotide is about 64% of that found in glyphosate resistant wheat that contains a double cassette construct, pMON30139: P-e35S/1-Hsp70/CP4EPSPS_Nat and P-OsAct1/I-OsAct1/CP4EPSPS_Nat (WO/0022704).

[3] = test system: CP4EPSPS polynucleotide; test: PCR detection of artificial CP4EPSPS polynucleotides in transgenic plants; parameters: species or system corn; settings: amplicon size obtained with the primer pair specific for the gene; second figure in brackets
Description: A DNA detection method (polymerase chain reaction, PCR) is designed to detect the artificial CP4EPSPS polynucleotides in transgenic plants. The unique sets of DNA primers shown in Table 26 are designed to amplify a specific CP4EPSPS polynucleotide and to provide distinctly sized amplicons. The amplicons differ sufficiently in polynucleotide length among the various CP4EPSPS polynucleotides to make easy separation of the amplicons by standard agarose gel electrophoresis. The presence of more than one of the artificial polynucleotides can be detected in a plant by using a multiplex PCR method.
DNA primer pairs (Table 26) are used to produce an amplicon diagnostic for a specified CP4EPSPS polynucleotide contained in a transgenic plant. These primer pairs include, but are not limited to SEQ ID NO:24 and SEQ ID NO:25 for the CP4EPSPS_AT polynucleotide; SEQ ID NO:26 and SEQ ID NO:27 for the CP4EPSPS_ZM; SEQ ID NO:28 and SEQ ID NO:29 for CP4EPSPS_Nat and SEQ ID NO:30 and SEQ ID NO:31 CP4EPSPS_Syn polynucleotide molecule. In addition to these primer pairs, any primer pair derived from SEQ ID NO:17 or SEQ ID NO:18 that when used in a DNA amplification reaction produces a DNA amplicon diagnostic for the respective CP4EPSPS polynucleotide is an aspect of the present invention. […]

[4] = test system: transgenic cotton plants; test: Cotton transformation (transformation efficiency, insert number); format: cell-based; settings: relative to pMON20999
Procedure: (§1) Three plasmid constructs are evaluated in transgenic cotton plants (Table 21). The control construct (pMON20999) contains P-FMV/CP4EPSPS_Syn this expression cassette is contained in the commercially available glyphosate tolerant cotton line 1445 (Roundup Ready® cotton, Monsanto Co., St. Louis, Mo.). The plasmid constructs, pMON59313 and pMON59396 containing the CP4EPSPS_AT and CP4EPSPS_ZM polynucleotides, respectively, are assayed for transformation efficiency and CP4EPSPS enzyme levels relative to the commercial glyphosate tolerant expression cassette. About fifty transgenic cotton lines are evaluated for each construct.

[5] = test system: transgenic cotton plants; test: CP4EPSPS ELISA, enzyme level in R0 cotton lines; format: in vivo; settings: relative to pMON20999 expression cassette
Procedure: as §1

B1: CP4EPSPS_ZM: Artificial polynucleotide encoding the CP4EPSPS protein using the Zea mays codon usage table (nucleic acid, listed as Agrobacterium tumefaciens)
DNA: ATGCTACACGGTGCAAGCAGCCGGCCGGCAACCGCTCGCAAATCTTCCGGCCTTTCGGGAACGGTCAGGATTCCGGGCGATAAGTCCATATCCCACCGGTCGTTCATGTTCGGCGGTCTTGCCAGCGGTGAGACGCGCATCACGGGCCTGCTTGAAGGTGAGGACGTGATCAATACCGGGAAGGCCATGCAGGCTATGGGAGCGCGTATCCGCAAGGAAGGTGACACATGGATCATTGACGGCGTTGGGAATGGCGGTCTGCTCGCCCCTGAGGCCCCTCTCGACTTCGGCAATGCGGCGACGGGCTGCAGGCTCACTATGGGACTGGTCGGGGTGTACGACTTCGATAGCACGTTCATCGGAGACGCCTCGCTCACAAAGCGCCCAATGGGCCGCGTTCTGAACCCGTTGCGCGAGATGGGCGTACAGGTCAAATCCGAGGATGGTGACCGTTTGCCCGTTACGCTGCGCGGGCCGAAGACGCCTACCCCGATTACCTACCGCGTGCCAATGGCATCCGCCCAGGTCAAGTCAGCCGTGCTCCTCGCCGGACTGAACACTCCGGGCATCACCACGGTGATCGAGCCCATCATGACCAGGGATCATACCGAAAAGATGCTTCAGGGGTTTGGCGCCAACCTGACGGTCGAGACGGACGCTGACGGCGTCAGGACCATCCGCCTTGAGGGCAGGGGTAAACTGACTGGCCAAGTCATCGATGTTCCGGGAGACCCGTCGTCCACGGCCTTCCCGTTGGTTGCGGCGCTGCTCGTGCCGGGGAGTGACGTGACCATCCTGAACGTCCTCATGAACCCGACCAGGACCGGCCTGATCCTCACGCTTCAGGAGATGGGAGCCGACATCGAGGTGATCAACCCGCGCCTGGCAGGCGGTGAAGACGTTGCGGATCTGCGCGTGCGCTCCTCTACCCTGAAGGGCGTGACGGTCCCGGAAGATCGCGCGCCGTCCATGATAGACGAGTATCCTATTCTGGCCGTCGCCGCTGCGTTCGCCGAAGGGGCCACGGTCATGAACGGTCTTGAGGAACTCCGCGTGAAGGAATCGGATCGCCTGTCGGCGGTGGCCAATGGCCTGAAGCTCAACGGTGTTGACTGCGACGAGGGTGAGACCTCACTCGTGGTCCGTGGCCGGCCTGATGGCAAGGGCCTCGGCAACGCCAGTGGAGCGGCCGTCGCCACGCACCTCGATCATCGCATCGCGATGTCCTTCTTGGTGATGGGTCTCGTCTCAGAGAACCCGGTGACCGTCGATGACGCCACGATGATAGCGACGAGCTTCCCAGAGTTCATGGATCTGATGGCGGGCCTCGGGGCCAAGATCGAACTGTCTGACACGAAGGCCGCTTGA
In the case of B1, the “expression level of CP4EPSPS protein (in words)” value [1] is reported as “surprisingly high expression level”, the “CP4EPSPS enzyme expression relative to CP4EPSPS_AT” value ([2]; wheat) is reported as “at least seven times higher” and the “CP4 Exp. (%) CP4EPSPS expression” value ([2]; wheat leaves, relative to pMON30139 double cassette wheat, ELISA) is reported as “about 64%”. For the same molecule, the “PCR product (bps)” value [3] was 595 (600) bps.

B2: CP4EPSPS_AT: Artificial polynucleotide encoding the CP4EPSPS protein using the Arabidopsis codon usage table (nucleic acid, listed as Agrobacterium tumefaciens)
DNA: ATGCTTCATGGAGCTTCATCTAGGCCAGCTACTGCCAGGAAGTCTAGCGGGCTCAGTGGCACCGTGCGCATCCCTGGCGATAAAAGTATTTCACACAGGAGCTTCATGTTCGGAGGACTTGCTAGTGGAGAGACGAGAATCACTGGTTTGCTTGAGGGCGAAGATGTTATCAACACCGGTAAGGCGATGCAAGCAATGGGTGCCAGAATCCGAAAAGAGGGCGATACGTGGATCATCGACGGTGTTGGTAACGGAGGATTGCTCGCTCCCGAAGCGCCACTTGACTTTGGGAACGCAGCTACGGGGTGCCGTCTTACTATGGGACTGGTAGGCGTGTATGACTTTGACTCTACCTTCATCGGTGACGCGAGCCTCACTAAGAGACCAATGGGACGAGTGCTGAATCCCCTGAGGGAGATGGGTGTCCAGGTGAAATCTGAGGATGGTGATCGTCTTCCGGTTACTCTGCGAGGCCCCAAGACCCCCACGCCAATCACGTACAGGGTTCCGATGGCGTCAGCACAGGTCAAGTCAGCGGTACTCCTGGCGGGCCTCAACACACCTGGAATCACAACCGTGATTGAACCCATCATGACTAGAGACCACACGGAGAAGATGTTGCAGGGTTTCGGCGCTAATCTAACGGTCGAAACCGACGCCGACGGCGTGAGGACAATCCGCTTGGAGGGCAGAGGTAAACTGACTGGCCAAGTCATCGATGTGCCTGGAGATCCCTCGTCCACAGCGTTTCCCCTCGTAGCTGCGTTGCTCGTCCCTGGATCTGATGTGACGATCCTGAATGTCCTCATGAATCCAACTAGAACCGGCCTCATCCTCACATTGCAGGAGATGGGTGCTGACATCGAGGTTATCAATCCTAGGTTGGCAGGTGGAGAGGATGTGGCCGATCTGCGCGTGCGTTCTAGTACACTCAAAGGCGTGACCGTCCCTGAGGATCGCGCTCCATCCATGATCGACGAGTACCCCATTCTCGCCGTTGCTGCTGCGTTTGCCGAGGGCGCAACTGTAATGAACGGCCTTGAGGAGTTGAGGGTTAAGGAGAGTGACAGGCTGTCCGCGGTGGCGAATGGCCTGAAGCTAAACGGCGTGGACTGCGACGAAGGTGAAACGTCCCTTGTAGTCCGTGGTCGCCCAGACGGGAAGGGGTTGGGGAATGCTTCGGGAGCTGCTGTGGCGACGCACCTTGATCATAGAATCGCCATGTCATTTCTGGTGATGGGACTTGTCTCCGAGAATCCGGTGACCGTTGACGATGCTACCATGATCGCCACCTCCTTTCCTGAGTTCATGGACCTCATGGCAGGCTTGGGGGCCAAGATCGAGCTGTCTGATACTAAGGCCGCTTGA
With B2 the “percentage of plants with a single insert” value [4] was “higher percentage of plants with a single insert”, the “expression level of the CP4EPSPS enzyme (in words)” value [5] was “increase in expression level” and the “PCR product (bps)” value [3] was 938 (940) bps.
